Drawing on a protein production outcome set (Wang et al. 2014), this text covers protein production for 17 sequences.
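Note: failed if final PepcDB status was selected cloned or expressed and not failed if soluble or beyond.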

A short description of this series: label from the status in PepcDB records.
For the sequence “MKPNNVNNQNKRHQSRWVITSATAMILTTLTIASQAAAADDTVTTTTNEPTNSQLNTNTQVNATQVNLKADTSTSVSTIKSDQSAVAATSPTTSTGSPSEHSSSVNTNPQQQSANPASQSQATTTSESTPTTDIKHPTQTAPAQTTSASTTEPTTESNTESATDSQAKATTTDNQASKQPSQQAVPASSNSTTTEVNTQSATSSASTDDKIVTNVNQEKLVLKTNQPVVRAISRTASENINDWMPNTLLQQEVLSQLRKQNPDRTWNSAADITKADMLLLTTYYGKDTYIDGKTSYSLEGLQYATNLTTVWLNNNLNAPSGSYYSDVTDISPLANLQKLQVVNIQQNRITDISPLANLKNLTEVDAAYNHISDFSPLKGFKNLKGTFSNQFITLPPAYISADNNIATLAIDCYLPDGSKVQLKPNNGVGETVFYKNGQLYVRWYFNGAGGGNYDSNGHIYYTNMKPQQPGLTGPTFNGTTVIPMDDYYFMTAASDGNNFVVVRPYVLAATAAPITVKYVDALTGESLVTADLTLNGIVGQPYTTQRIDDELPNYDFTNIVGNASGVFTADAQTVTYYYTRKDAGDITIHMVDTNGNLVYEPQILPGKHNLGNAYNLDAPTFDHFKLHQTIGNAAGVFTTDPQSITFVYVRLDAGNITVKYQDKQGHQLKPDKTVSGSQSLGQTYTTEPLGIENYTLMTTPANATGTFTDQEQTVIYVYVRRDAGQIVVKYQDSAGNPLAPDKLLDGKEQLGVAYQTAAISIPNFYLVATPANATGTFSTDTQTVIYQYARSNAGHITVKYQDANGTTLAPDDVLTGDGQLGRPYQTSAKTIENYRLIQTPANATGQFSDQAQTVIYVYTREDAGDITVQYLDENGQQLAADSVLSGQGQLGQPYETSPLNINGYTVKSTQGNTTGTYTVQPQRVVYIYERTAGQPVTAKYQDQDGKSIHPDVVHSGYLGDNYSTEQLVIDGYTFKAVQGDVSGTFGTSAKTVTYVYTESTPTIPDTQGTVTVHYVTKDGIKLNEPTVLSGKTGTTYQTVPLTFTDHELVGQPENATGLFTADNVDVTYVYQATDTTGTDDIIDPEEPEQPTKPIKPTTPETPNEPGTTVTQPDRIKPTQPAVAVKPAATVKPTLKPAAAQASLVKTTSPVTEHSAQLPQTDEQTGKLAVILGLLLSVVTLGFYGKNRQS”, the protein production entry is reported as “failed”. As for “MDMKKYILSLSLLTVINSSAIATTQEGEEAYNKGYYEKAFILLSPEADKGDAKAQYLLGKMYYNAQGVTYNPEKTEQLLLASANQGNVDAQVLLAGFYWYLNTPEGYKKAFEWYQKAADQNNADGQYGLGYMYDTGTGVPQNSDTAMVWYKKAAEQGNSNAALAIGYNYDTGTGVKKDKTQALNWYAKAADLGNASAQYNLGLMYEQGDGVPKDYQKAAEYFEKAANQGHAKSQLELGYLYDSGKLGKSDLQKAAFWYQKSADLGNANAQFNLADMYFYGDGVGKSLEQSVYWMQKAAEQGYGKAQNQLGIYYRDGIGVAADPVKAYAWFTAAKNNGFEKAASNASDLEKSMNPEDLSKARILGQQYTDNYKAKK”, the entry is “failed”; as for “MTTENTTALLLIDFQNDYFSTYNGAKNPLVGTEAAAEQGAKLLAKFRQQGLPVVHVRHEFPTDEAPFFLPGSDGAKIHPSVAAQEGEAVVLKHQINSFRDTDLKKVLDDAGIKKLVIVGAMTHMCIDAVTRAAEDLGYECAVAHDACATLDLEFNGITVPAAQVHAAFMSALSFAYANVASADELIAGL”, “not failed”. With “MQPRFLGQLGLADVVTVANAALGFIAAAVAVFDTELAARLILLAAIADGLDGVIARFRGGTPVGPILDSLADVASFGVAPAVLVYALASGGEVTLDEPLAVAAVVVAALYVAMAVVRLGFYLLEDDGAPETVGVQTTLAATVLSVLHLAGVTDPAVFVAATAAFAYLMVASITYPELYARDALILGGLQACVVLFPTAFGRAFPRVLLVFALGYLLLAPVAYWRSTEGKRS”, the protein production result is recorded as “failed”. As for “MYKHILVPVDLNEQGFADKAVQLAVWHAKHSNAEIHLLNVLPGIHMSMVATYFPKDAAAQMKNDVRAQLKAFAEKHIAEEVVYKLHIAEGKPYATILDYAERLGADLIVMPSHKRSRIDKVMLGSVASKVVENSPINVMVVKPQG”, the entry is “not failed”; as for “MFVGFLSGLIVMGALLSILLVLLGVMALRVFVRYILPILLILLIIRLIISGIVLLFNPHFWLFIAVVALVLWILGKIRN”, “failed”; as for “MSNNGSSPLVLWYNQLGMKDVDRVGGKNASLGEMITNLSGMGVSVPNGFATTADAFNQFLDQSGVNQRIYELLDKTDIDDVTQLAKAGAQIRQWIIDTPFQPELENAIREAYAQLSADDENASFAVRSSATAEDMPDASFAGQQETFLNVQGFDAVLVAVKHVFASLFNDRAISYRVHQGYDHRGVALSAGVQRMVRSDLASSGVMFSIDTESGFDQVVFITSAWGLGEMVVQGAVNPDEFYVHKPTLAANRPAIVRRTMGSKKIRMVYAPTQEHGKQVKIEDVPQEQRDIFSLTNEEVQELAKQAVQIEKHYGHPMDIEWAKDGHTGKLFIVQARPETVRSRGQVMERYTLHSQGKIIAEGRAIGHRIGAGPVKVIHDISEMNRIEPGDVLVTDMTDPDWEPIMKKASAIVTNRGGRTCHAAIIARELGIPAVVGCGDATERMKDGENVTVSCAEGDTGYVYAELLEFSVKSSSVETMPDLPLKVMMNVGNPDRAFDFACLPNEGVGLARLEFIINRMIGVHPRALLEFDDQEPQLQNEIREMMKGFDSPREFYVGRLTEGIATLGAAFYPKRVIVRLSDFKSNEYANLVGGERYEPDEENPMLGFRGAGRYVSDSFRDCFALECEAVKRVRNDMGLTNVEIMIPFVRTVDQAKAVVEELARQGLKRGENGLKIIMMCEIPSNALLAEQFLEYFDGFSIGSNDMTQLALGLDRDSGVVSELFDERNDAVKALLSMAIRAAKKQGKYVGICGQGPSDHEDFAAWLMEEGIDSLSLNPDTVVQTWLSLAELKK”, “failed”.

Turning to “MQLFHKTVNRRGTHSIKWDTYKNEELIHAWIADMDFEVPQPIQTALKKRIEHPIFGYTLPPENIGDIICNWTKKQYNWDIQKEWIVFSAGIVPALSTSIQAFTKENESVLVQPPIYPPFFEMVTTNNRQLCVSPLQKQNDTYAIDFEHLEKQFQQGVKLMLLCSPHNPIGRVWKKEELTKLGSLCTKYNVIVVADEIHSDIIYADHTHTPFASLSEELAARTITCMAPSKTFNIAGLQASIIIIPNEKLRQAFTSIQYRQGFHGLNIFAYTAMQSAYTECNDWLNEIRFYIEDNAKFACEYIKDHIPTLSVMKPEGSFLLWIDCSALNLSQDERTKLLEEKGKIIVEPGEKYGLGGEEHIGINIGCPRSVLEEILNRLRHTFS”, the protein production entry is reported as “not failed”. As for “MPGIDKLPIEETLEDSPQTRSLLGVFEEDATAISNYMNQLYQAMHRIYDAQNELSAATHLTSKLLKEYEKQRFPLGGDDEVMSSTLQQFSKVIDELSSCHAVLSTQLADAMMFPITQFKERDLKEILTLKEVFQIASNDHDAAINRYSRLSKKRENDKVKYEVTEDVYTSRKKQHQTMMHYFCALNTLQYKKKIALLEPLLGYMQAQISFFKMGSENLNEQLEEFLANIGTSVQNVRREMDSDIETMQQTIEDLEVASDPLYVPDPDPTKFPVNRNLTRKAGYLNARNKTGLVSSTWDRQFYFTQGGNLMSQARGDVAGGLAMDIDNCSVMAVDCEDRRYCFQITSFDGKKSSILQAESKKDHEEWICTINNISKQIYLSENPEETAARVNQSALEAVTPSPSFQQRHESLRPAAGQSRPPTARTSSSGSLGSESTNLAALSLDSLVAPDTPIQFDIISPVCEDQPGQAKAFGQGGRRTNPFGESGGSTKSETEDSILHQLFIVRFLGSMEVKSDDHPDVVYETMRQILAARAIHNIFRMTESHLLVTCDCLKLIDPQTQVTRLTFPLPCVVLYATHQENKRLFGFVLRTSSGRSESNLSSVCYIFESNNEGEKICDSVGLAKQIALHAELDRRASEKQKEIERVKEKQQKELNKQKQIEKDLEEQSRLIAASSRPNQASSEGQFVVLSSSQSEESDLGEGGKKRESEA”, the protein production result is “failed”. On to “STIIYIKDLNGRYTLVNNKYCEVLGIERRKIIGAMDFELFQPPLAELYQQNDQRANNSHDALHFEEPIPTPRGEIIYHMTKFDIRDDE”, for which the protein production entry is “failed”. As for “MSIKAGFDDRALARVEAAIRADVESGIYDGAVIKVARHGQIALDATIGFSNRRAGAAMREDAVFKVLSLTKAFTTTLVLEAIDLGLLSLTTRVVDVIPEFWGRDLFRSGRKERVNVGHLLTHRAGLSPTPQPLPYDQLHNFSETIQAICALDVVGEPGKAFNYSPTVNHALLGEMVRRVHGAASLAELMDQRLFSRLGMSSTSLGPTSQIRDRLVPLTSDFPEGGWLTNADIKAVADAIEAPNSQMPWVGAMTSAQDVFVFAEMLREQGTVRDERILSPAVVRKATTLQTGDAINDLYKLLADARHWDLPAGNMGLGFALGGDGLTVSQFGTLTSPGTFGNFGAGSTLFWVDPESQITFVCLTAKVMEESENILRFQRLSDLVASAAL”, the entry is “failed”. “AIAAASLGEFEWCVATNTFRISPRLAKLSGIPEGELDSQGGNALYAYIHPDDREAVRANIDRQLAQSGRFTAEYRRTPLEHGGETWNSVAGVMLMDADGQPSRLIGVVQDITPRKL”: the protein production result is reported as “failed”. Consider “MAFRKPDEIAEAAIEAGMKKIKLPLPSLLVLGFLGGAFIALGYLLDIRVIGDLPKEWGSLSSLIGAAVFPVGLILVVLAGAELITGNMMSVAMALFSRKISVKELAINWGIVTIMNLIGALFVAYFFGHLVGLTETGPYLEKTIAVAQGKLDMSFGKVLISAIGCNWLVCLAVWLSFGAQDAAGKILGIWFPIMAFVAIGFQHVVANMFVIPAAIFAGSFTWGQFIGNIIPAFIGNVIGGAVFVGLIYFIAYHKKDRSRKEMKQVS”, for which the protein production result is “failed”. As for “MIHFSINKNLFLQALNTTKRAISSKNAIPILSTVKIDVTNEGITLIGSNGQISIENFISQKNEDAGLLITSLGSILLEASFFINVVSSLPDVTLDFKEIEQNQIVLTSGKSEITLKGKDSEQYPRIQEISASTPLILETKLLKKIINETAFAASTQESRPILTGVHFVLSQHKELKTVATDSHRLSQKKLTLEKNSDDFDVVIPSRSLREFSAVFTDDIETVEIFFANNQILFRSENISFYTRLLEGNYPDTDRLIPTDFNTTITFNVVNLRQSMERARLLSSATQNGTVKLEIKDGVVSAHVHSPEVGKVNEEIDTDQVTGEDLTISFNPTYLIDSLKALNSEKVTISFISAVRPFTLVPADTDEDFMQLITPVRTN”, the entry is “not failed”; as for “MSGRYEIRFSGAGGQGLILAGVIMAEAASIYDGKQAVQSQSYGPEARGGASKSEVIISDGPVDYPKATQCDALLALTQEACDKYSADLKEGGVLLVDSDLVTKLPPGNYQTTAFNIINTAKNDVGREIVANIVALGAMVALTGVVSKEAAEKAVLSRVPEAFVELNRKAFQMGFEKALAAKK”, “failed”; as for “MLTQFLNLLATIISVISLLIVTYGALIAIISFIINELKRVTGAYTPTNIRKLRAVFGTYLLLGLEFLIASDILKTVLEPTMNELIILGGIVVVRTILSVFLNKEIKELETENN”, “failed”. With “MKVSVEIITGTFIDTDVSEDATVKQMKEKIAVEVKLPVTRLILVIGDEETRRLVMEDEDDMMLRDLGVGEDSHIYLFFKHPDLVSKEERSKGEDDDDPMEEVSSEAESGRGNEEEVEKAKIDGEEEDQAMKDEEEDRDVKVEEDEEEKEKEKDGEAKYVKEEAREVEEADNKQEN” the entry was “failed”.
